This is an account of results in patent publication US8399206B2, “Methods for diagnosis, prognosis and methods of treatment” (Nodality, Inc., priority 2008, dated 2013).

The test system of this assay is AML blasts. Kind of assay: SCNP / phospho-flow modulated signaling assay, AML study No. 1 (PBMC at diagnosis, CR vs NR). The assay is classed as cell-based, human.
Where [1] appears, read: Study No. 1 sensitivity analysis, CR samples.
Setting [2] is: Study No. 1 sensitivity analysis, NR samples incl. CRp.

B1: IL-27: interleukin-27 (protein, UniProt Q8NEV9 29-243; Q14213 21-229, looked up)
Interleukin-27 subunit alpha: FPRPPGRPQLSLQELRREFTVSLHLARKLLSEVRGQAHRFAESHLPGVNLYLLPLGEQLPDVSLTFQAWRRLSDPERLCFISTTLQPFHALLGGLGTQGRWTNMERMQLWAMRLDLRDLQRHLRFQVLAAGFNLPEEEEEEEEEEEEERKGLLPGALGSALQGPAQVSWPQLLSTYRLLHSLELVLSRAVRELLLLSKAGHSVWPLGFPTLSPQP
Interleukin-27 subunit beta: RKGPPAALTLPRVQCRASRYPIAVDCSWTLPPAPNSTSPVSFIATYRLGMAARGHSWPCLQQTPTSTSCTITDVQLFSMAPYVLNVTAVHPWGSSSSFVPFITEHIIKPDPPEGVRLSPLAERQLQVQWEPPGSWPFPEIFSLKYWIRYKRQGAARFHRVGPIEATSFILRAVRPRARYYVQVAAQDLTDYGELSDWSLPATATMSLGK
Take B1: under setting [1], the “Mean Value of CRs, p-CREB Total Phospho” value is given as 1.25; the “Mean Value of CRs, p-Stat1 Total Phospho” value came out at 0.39; the “Mean Value of CRs, p-Stat3 Total Phospho” value was 1.01. Further, under setting [2], the “Mean Value of NRs, p-CREB Total Phospho” value worked out at 2.36; the “Mean Value of NRs, p-Stat1 Total Phospho” value came out at 0.81; the “Mean Value of NRs, p-Stat3 Total Phospho” value came to 1.85. In addition, the “IL-27-induced levels of total p-Stat1 and p-Stat3” value (staurosporine resistant samples vs other apoptosis categories) is “all greater in this apoptotic sub-category”.

B2: FLT-3L: fms-like tyrosine kinase receptor-3 ligand (protein, UniProt P49771 27-235, looked up)
Fms-related tyrosine kinase 3 …: TQDCSFQHSPISSDFAVKIRELSDYLLQDYPVTVASNLQDEELCGGLWRLVLAQRWMERLKTVAGSKMQGLLERVNTEIHFVTKCAFQPPPSCLRFVQTNISRLLQETSEQLVALKPWITRQNFSRCLELQCQPDSSTLPPPWSPRPLEATAPTAPQPPLLLLLLLPVGLLLLAAAWCLHWQRTRRRTPRPGEQVPPVPSPQDLLLVEH
In the case of B2, under setting [1], the “Mean Value of CRs, p-Akt Fold” value was 0.10; the “Mean Value of CRs, p-CREB Fold” value is on record as 0.07; the “Mean Value of CRs, p-CREB Total Phospho” value was 1.39; the “Mean Value of CRs, p-Erk Fold” value is 0.08. Also, under setting [1], the “Mean Value of CRs, p-Plcγ2 Total Phospho” value is given as 1.81 and the “Mean Value of CRs, p-S6 Fold” value was determined as 0.14. The “Mean Value of CRs, p-Plcγ2 Fold” value (Study No. 1 sensitivity analysis, CR samples, negative = down regulation) is listed as −0.14. Also, under setting [2], the “Mean Value of NRs, p-Akt Fold” value is listed as 0.65; the “Mean Value of NRs, p-CREB Fold” value is 0.36; the “Mean Value of NRs, p-CREB Total Phospho” value amounted to 2.13; the “Mean Value of NRs, p-Erk Fold” value came to 0.33. Further, under setting [2], the “Mean Value of NRs, p-Plcγ2 Total Phospho” value was found to be 2.78 and the “Mean Value of NRs, p-S6 Fold” value was determined as 0.83. The “Mean Value of NRs, p-Plcγ2 Fold” value (Study No. 1 sensitivity analysis, NR samples incl. CRp, negative = down regulation) is given as −0.08.
